In patent US20210380673A1:
Blank lines part the entries; values can stand above or below the substance they belong to.

Columns and labels:
Experiment in all cases: cell-based or functional assay
[1] = biological target: recombinant mouse CCL20 (mouse) (UniProt O89093)
[2] = biological target: recombinant human CCL20 (human) (UniProt P78556)
human CCR6 (human) = human CCR6 (human) (UniProt P51684)
Sequence of UniProt P51684 (P51684 whole entry): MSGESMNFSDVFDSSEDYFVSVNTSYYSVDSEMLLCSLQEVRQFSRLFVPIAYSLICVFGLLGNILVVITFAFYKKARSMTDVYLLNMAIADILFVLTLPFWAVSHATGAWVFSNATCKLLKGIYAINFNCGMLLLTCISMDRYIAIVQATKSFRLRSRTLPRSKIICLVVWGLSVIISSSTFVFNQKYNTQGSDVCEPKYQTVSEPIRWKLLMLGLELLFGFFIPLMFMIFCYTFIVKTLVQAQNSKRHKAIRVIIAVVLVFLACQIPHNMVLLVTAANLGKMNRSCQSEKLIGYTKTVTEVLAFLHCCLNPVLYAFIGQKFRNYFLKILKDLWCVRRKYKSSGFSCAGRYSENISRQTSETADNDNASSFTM

Sequence of UniProt P78556 (P78556 27-96 limits assumed): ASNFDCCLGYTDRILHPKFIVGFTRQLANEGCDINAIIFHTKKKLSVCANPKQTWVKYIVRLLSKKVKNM
Sequence of UniProt O89093 (O89093 28-97 limits assumed): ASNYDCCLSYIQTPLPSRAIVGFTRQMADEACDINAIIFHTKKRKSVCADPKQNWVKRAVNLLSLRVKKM

IC50, beta-arrestin translocation assay (CHO-K1 cells overexpressing mouse CCR6, stimulated with 1.2 nM mouse CCL20) [1]: 14 nM
Substance: anti-mouse CCL20 monoclonal antibody (clone 114908; R&D Systems)

IC50, beta-arrestin translocation assay (CHO-K1 cells overexpressing human CCR6, stimulated with 6 nM CCL20) [2]: 2.7 nM
IC50, cAMP assay (Ad293 cells overexpressing human CCR6, stimulated with 1 nM CCL20) [2]: 0.8 nM
Substance: neutralizing monoclonal antibody against human CCL20 (clone 67310; R&D Systems)

expression of NANOG, BMI1, OCT3/4 and SOX2 in CCR6+ against CCR6- NCIH508 cells after 48 hours with 100 pg/mL CCL20 (human CCR6 (human)): 2 fold
Substance: recombinant human CCL20 (from UniProt P78556 27-96) (ligand)
